Results from publication PMC2757162 (Journal of molecular biology, 2008).

Target: the molecule itself

B1: Herpes simplex virus type 1 SSB/recombination protein ICP8 (natural protein)
chain: METKPKTATTIKVPPGPLGYVYARACPSEGIELLALLSARSGDSDVAVAPLVVGLTVESGFEANVAVVVGSRTTGLGGTAVSLKLTPSHYSSSVYVFHGGRHLDPSTQAPNLTRLCERARRHFGFSDYTPRPGDLKHETTGEALCERLGLDPDRALLYLVVTEGFKEAVCINNTFLHLGGSDKVTIGGAEVHRIPVYPLQLFMPDFSRVIAEPFNANHRSIGEKFTYPLPFFNRPLNRLLFEAVVGPAAVALRCRNVDAVARAAAHLAFDENHEGAALPADITFTAFEASQGKTPRGGRDGGGKGAAGGFEQRLASVMAGDAALALESIVSMAVFDEPPTDISAWPLFEGQDTAAARANAVGAYLARAAGLVGAMVFSTNSALHLTEVDDAGPADPKDHSKPSFYRFFLVPGTHVAANPQVDREGHVVPGFEGRPTAPLVGGTQEFAGEHLAMLCGFSPALLAKMLFYLERCDGAVIVGRQEMDVFRYVADSNQTDVPCNLCTFDTRHACVHTTLMRLRARHPKFASAARGAIGVFGTMNSMYSDCDVLGNYAAFSALKRADGSETARTIMQETYRAATERVMAELETLQYVDQAVPTAMGRLETIITNREALHTVVNNVRQVVDREVEQLMRNLVEGRNFKFRDGLGEANHAMSLTLDPYACGPCPLLQLLGRRSNLAVYQDLALSQCHGVFAGQSVEGRNFRNQFQPVLRRRVMDMFNNGFLSAKTLTVALSEGAAICAPSLTAGQTAPAESSFEGDVARVTLGFPKELRVKSRVLFAGASANASEAAKARVASLQSAYQKPDKRVDILLGPLGFLLKQFHAAIFPNGKPPGSNQPNPQWFWTALQRNQLPARLLSREDIETIAFIKKFSLDYGAINFINLAPNNVSELAMYYMANQILRYCDHSTYFINTLTAIIAGSRRPPSVQAAAAWSAQGGAGLEAGARALMDAVDAHPGAWTSMFASCNLLRPVMAARPMVVLGLSISKYYGMAGNDRVFQAGNWASLMGGKNACPLLIFDRTRKFVLACPRAGFVCAASSLGGGAHESSLCEQLRGIISEGGAAVASSVFVATVKSLGPRTQQLQIEDWLALLEDEYLSEEMMELTARALERGNGEWSTDAALEVAHEAEALVSQLGNAGEVFNFGDFGCEDDNATPFGGPGAPGPAFAGRKRAFHGDDPFGEGPPDKKGDLTLDML
binding result: binds
